Target: Transforming growth factor β1 (TGFβ1) (human) (UniProt P01137)
Assay: SPR

Sequence of UniProt P01137 (P01137 279-390): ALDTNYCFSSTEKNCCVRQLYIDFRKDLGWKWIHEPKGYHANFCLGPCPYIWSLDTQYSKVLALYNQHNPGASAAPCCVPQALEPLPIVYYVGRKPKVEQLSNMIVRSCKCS

Kd: 139 nM
Substance: Metelimumab (CAT192 IgG4) (antibody)

From article PMC5916551
